# Laboratory results reported in the supplement of paper PMC12042874.
# ± gives the uncertainty stated by the source.
# Assay: amyloid nucleation score (Sup35N fusion, yeast selection) (log enrichment); library NNK1; higher = more nucleation; inactive = no reads after selection
# In short: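 Psi-negative yeast expressed Sup35N fused to peptides of 20 random codons. They were induced 24 hours with 100 μM copper sulfate, grown 7 days at 30°C without adenine and uracil, and their plasmid inserts from input and output were Illumina-sequenced. The nucleation score is the DiMSum log enrichment of output over input reads, centred on the mode score of non-aggregating sequences. Sequences with under 100 input reads were excluded.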
row,Substance,amyloid nucleation score
1,RFSDT,-0.568 ± 0.3
2,RFSGVFSDQLVLSD,-0.713 ± 0.68
3,RFVCLLIGVSQLPQLRCEYR,-1.17 ± 0.47
4,RFVWVMSYGPSTYILHVWFV,0.248 ± 0.39
5,RFWVYGKGILMVLGAFFCL,0.07 ± 0.56
6,RGAPKLCTDIDWARYFNRGL,-0.407 ± 0.4
7,RGCRGSRQSVGSKR,-0.166 ± 0.31
8,RGHLLGFMRRLCFIGLR,-0.372 ± 0.64
9,RGIKCPVSCKIASSRREWWV,0.789 ± 0.37
10,RGMKCIMSSKDVGS,-1.13 ± 2.4
11,RGMSTNSRECHNMCFQVGV,0.228 ± 0.49
12,RGNACVT,0.598 ± 0.34
13,RGNLAGLVLMNRHGCV,0.078 ± 0.4
14,RGSPFGVSM,5.4 ± 0.091
15,RGSQTLGCVSGLHHHRFAIL,-1.14 ± 0.63
16,RGVCSRDVWARLVELTAEMG,0.459 ± 0.93
17,RGWGELVVVNHLLRRGGGEG,-0.029 ± 0.69
18,RGYAVNAGYSVCMYWLGTLL,0.695 ± 0.53
19,RHHCKTCASYCFRIFIAEMM,0.216 ± 0.42
20,RHSKMVQLRLSTYGVET,inactive
21,RIANQ,-0.086 ± 0.51

row,Substance,amyloid nucleation score
1,RIENDGLEMLGIINQQSCGS,4.01 ± 0.11
2,RIGNGVLKDYRLFFFETSFT,-0.727 ± 0.36
3,RIKRILFFYSVRIWDLSDG,2.52 ± 0.12
4,RIKVYALMHRSGGICTFIR,0.04 ± 0.21
5,RILGYRIMTNWGVGSYKPGR,-0.41 ± 0.46
6,RILVVNWVYPSTMNGVSQWS,2.63 ± 0.2
7,RILWSLYGGSLFPYVSVGWR,0.552 ± 0.56
8,RIMPEKGRNSHWMYIRVQER,1.12 ± 0.58
9,RINLYIMFNLLDSGVDLNS,6.45 ± 0.071
10,RIRVI,0.544 ± 0.63
11,RISRSISVDALMIRAGYLPN,inactive
12,RITHWSGKLAFQTIVTISYL,1.53 ± 0.41
13,RKDLEIWYRMRLGEMPLRWM,-0.165 ± 0.33
14,RKGSGSRLKIYVYVTVTKIG,0.52 ± 0.93
15,RKHVVPGKIF,0.006 ± 0.51
16,RKSAQYHG,inactive
17,RLCAQ,0.592 ± 0.81
18,RLCEFSSKGASL,-0.115 ± 1.1
19,RLDRWKHEMTAVSRCHKARM,1.24 ± 0.74
20,RLFDVMTITYTRSLSSPSCD,0.405 ± 1.2
21,RLFNTAQGSHSWH,1.56 ± 0.71

row,Substance,amyloid nucleation score
1,RLFTYYTVRNPYVADKFYNR,5.174 ± 0.051
2,RLGRGKMKGWLSMLCRDCAL,-0.918 ± 0.65
3,RLICGPWNYCCQYKYNHLVL,4 ± 0.12
4,RLISTGADCEVRISHIRSRN,0.594 ± 0.48
5,RLLSPLY,-0.773 ± 2.1
6,RLNKWWRTKDSYTGL,0.258 ± 0.41
7,RLNRVSVLLFPTFDLPPFLE,2.68 ± 0.098
8,RLRQTGVRLRSQEMFVGEVY,-0.378 ± 0.45
9,RLSIS,inactive
10,RLSQLVLVVWTAQGC,-0.006 ± 0.63
11,RLSTAMRVEVIGVSCSDARA,-0.033 ± 0.28
12,RLTNELLGVSIRLTSWFTFH,0.606 ± 0.48
13,RLVGGPRRASITKNWYTEK,-0.649 ± 0.73
14,RLVLSGWNVTVNSILYQGFI,6.078 ± 0.06
15,RLVPVACNPSLNKAVENSFF,0.056 ± 1.5
16,RLVRCMGTVIINQSHSCDRG,0.607 ± 0.64
17,RLYFRELSWSGLCMFELVRI,-0.117 ± 0.4
18,RLYKFTGF,1.09 ± 0.37
19,RLYLDMSIRPSWASVRFSFG,-1.19 ± 1.9
20,RLYSDAQ,-0.003 ± 0.71
21,RMDFMWLVKI,4.57 ± 0.056
